Data as given in US20240376185A1 (SMIVET B V, published 2024).
Substitutions are numbered along the chain they refer to. Names and notes keep the numbering of the source.

B1: SVT06-GS3-SVT16-L123Q-GS2-SVA12M2-H6 (bispecific antibody)
chain: QVQLQESGGGSVQAGGSLRLSCTASELSYDDYTIAWFRRAAGEGRVEDGEGVASITKSYDRAYDNKINYGHSVKGRFTISRDNAKNTVYLQMTDLLPSDTAVYYCALDITPPGGVGASLTEGFLFDYWGQGTQVTVSSGGGGSGGGGSGGGGSQVQLQESGGGSVQAGDSLRLSCAASGRTISNYAMGWFRQAPGKQREFVAAISRSDNTYYTDSVKGRFTISRDNAKNTLYLQMNSLKPEETAVYYCAADPNLMYESKWKYRALEAWGQGTQVTVSSGGGGSGGGSEVQLVESGGGLVQAGGSLRLSCAASGRTFSYYPMAWFRQAPGQEREFVAAIIGADTTYYADSLKGRFTISRDNAKNMVYLQMNSLKPEDTAVYYCAARNTYWSDVYYREGQYTNWGQGTQVTVSSHHHHHH
B2: SVT06-SVT16-L123Q-GS2-SVG13M4-H6 (bispecific antibody)
chain: QVQLQESGGGSVQAGGSLRLSCTASELSYDDYTIAWFRRAAGEGRVEDGEGVASITKSYDRAYDNKINYGHSVKGRFTISRDNAKNTVYLQMTDLLPSDTAVYYCALDITPPGGVGASLTEGFLFDYWGQGTQVTVSSQVQLQESGGGSVQAGDSLRLSCAASGRTISNYAMGWFRQAPGKQREFVAAISRSDNTYYTDSVKGRFTISRDNAKNTLYLQMNSLKPEETAVYYCAADPNLMYESKWKYRALEAWGQGTQVTVSSGGGGSGGGSEVQLVESGGGLVQPGGSLRLSCEASGFTFDDYGMSWVRQAPGKGLEWVSSLTPNGGSTYYADSVKGRFTISRDNAKNTLYLQMNSLKPEDTALYYCAKNSYYGAMDYWGQGTQVTVSSHHHHHH
B3: SVT16-L123Q-GS2-SVA12M2-H6 (bispecific antibody)
chain: QVQLQESGGGSVQAGDSLRLSCAASGRTISNYAMGWFRQAPGKQREFVAAISRSDNTYYTDSVKGRFTISRDNAKNTLYLQMNSLKPEETAVYYCAADPNLMYESKWKYRALEAWGQGTQVTVSSGGGGSGGGSEVQLVESGGGLVQAGGSLRLSCAASGRTFSYYPMAWFRQAPGQEREFVAAIIGADTTYYADSLKGRFTISRDNAKNMVYLQMNSLKPEDTAVYYCAARNTYWSDVYYREGQYTNWGQGTQVTVSSHHHHHH
B4: SVT16-L123Q-GS2-SVG13M4-H6 (bispecific antibody)
chain: QVQLQESGGGSVQAGDSLRLSCAASGRTISNYAMGWFRQAPGKQREFVAAISRSDNTYYTDSVKGRFTISRDNAKNTLYLQMNSLKPEETAVYYCAADPNLMYESKWKYRALEAWGQGTQVTVSSGGGGSGGGSEVQLVESGGGLVQPGGSLRLSCEASGFTFDDYGMSWVRQAPGKGLEWVSSLTPNGGSTYYADSVKGRFTISRDNAKNTLYLQMNSLKPEDTALYYCAKNSYYGAMDYWGQGTQVTVSSHHHHHH
B5: SVT20L-L123Q (VHH)
VHH: QVQLQQSGGGLVQAGGSLRLSCAASGRTMSSYAMGWFRQAPGKQREFVAAISRSGGNTYYTDSVKGRFTISRDNAKNTLYLQMNSLKPEETAVYYCAADPNLMYESKWKYRALEAWGQGTQVTVSS
B6: SVT34L-L123Q (VHH)
VHH: B5 VHH with Q6E, A14P, M29I, T69I, S85N

What was measured:
[1] = biological target: T1, tetanus neurotoxin (TeNT), authentic tetanus holotoxin (Clostridium tetani, UniProt P04958 2-1315)
[2] = biological target: T1, tetanus neurotoxin (TeNT), authentic …; experiment: cell-based or functional assay
[3] = biological target: Tetanus neurotoxin (TeNT), authentic tetanus holotoxin (Clostridium tetani, UniProt P04958 2-1315)
[4] = biological target: tetanus neurotoxin (TeNT), authentic tetanus holotoxin (Clostridium tetani, UniProt P04958 2-1315); remark: listed apart in the source

Binder	Kd [1] [pM]	koff [1] [s⁻¹]	kon [1] [M⁻¹ s⁻¹]	Endpoint dilution factor [2]	SDA concentration providing full protection [2] [nM]	IC50 [4] [µg/mL]	further results
B1	13.3	1.32e-05	989000	> 32	3.1		Potency IU/mg [2]: > 93.1 IU/mg
B2							Kd [3]: 15.9 pM; koff [3]: 6.61e-06 s⁻¹; kon [3]: 417000 M⁻¹ s⁻¹
B3	224	0.000199	886000				
B4	227	0.000184	665000	< 1	> 1000		
B5						0.038	
B6						0.034	
